The test system of test [1] is GRP78 siRNA transfected HMVEC cells. The experiment in a line: 3HK5 binding to GRP78 siRNA transfected cells. Further details: species or system human. The conditions noted are these: compared to scrambled siRNA transfected cells. Here is the method:
FIG. 13 is a graph comparing the effect of binding of rK5 to GRP78 siRNA transfected HMVEC cells and scrambled siRNA transfected cells. GRP78 siRNA or scrambled siRNA transfected EaHy cells were grown in 96 well plates. The media was changed and ^3HK5 in PBS was added to the cells. The cells were incubated at room temperature for two hours then washed thoroughly. Cell counts were measure for bound ^3HK5. Data points are the average of triplicate studies.
In selected studies, GRP78 siRNA- or scrambled siRNA-transfected EaHy cells were grown in 96 well plates. The media was changed and ^3HK5 in PBS was added to the cells at various concentrations. The cells were incubated at room temperature for two hours then washed thoroughly. Cell counts were measured for bound ^3HK5 as described above. Data points were calculated from the average of triplicate samples.

Test [2] has as its system bovine endothelial cell proliferation. The conditions noted are these: previously reported (Cao et al. 1996); read-out: IC50, inhibition of bovine endothelial cell proliferation; cited from earlier work.
Test [3] deals with fibroblasts. As to the kind of experiment: Fibroblast migration. The conditions noted are these: concentrations up to 1000-fold higher than for endothelial cell migration; data not shown. It is filed as cell-based.
Test [4] deals with caspase 7. As to the kind of experiment: Caspase 7 activity in HT1080 cells. Conditions: rK5 100 nM and hypoxia, overnight. In kind it is cell-based, human. Here is the method:
FIG. 16 is a graph showing the effect of rK5 and hypoxia treatment on caspace 7 activity in HT1080 cells. HT1080 cells were plated in 48 well plates. rK5 at 100 nM was added to the plates. HT1080 cells were incubated overnight in hypoxic conditions (95% N2, 5% CO2) compared to controls, which were incubated in 5% CO2. Caspase 7 activity in cell lysates was detected by the activation of an ELISA fluorescent substrate (R&D Systems).

The test system of test [5] is endothelial cell migration. The experiment in a line: Endothelial cell migration induced by various angiogenesis inducers (FIG. 9A). It is filed as cell-based, human. Conditions: aFGF, bFGF, IL-8, PDGF, TGF-β and VEGF; rK5 400 pM (100 pM for VEGF, PDGF). Here is the method: FIG. 9A is a graph showing inhibition by rK5 of endothelial cell migration induced by a variety of angiogenesis inducers including aFGF, bFGF, IL-8, PDGF, TGF-β, VEGF, HGF and […] at concentrations of 50 ng/mL, 15 ng/mL, 40 ng/mL, 1 pg/mL, 100 pg/mL 40 ng/mL and 250 ng/mL respectively. The concentration of rK5 used was 400 pM except for VEGF (rK5=100 pM), PDGF (rK5=100 pM) and HGF (rK5=10 pM). Membranes were covered, fixed and stained and the number of cells that had migrated to the upper chamber per 10 high power field counted. Background migration to DME+0.1% BSA was subtracted and the data reported as the number of cells migrated per 10 high power fields (100×). […]
Endothelial cell migration assays: The effect of rK5 on endothelial cell migration was determined by two different methods. […] After 4 h, migrated cells were measured by fluorescence (Frevert C W, Wong V A, Goodman R B, Goodwin R, Martin T R. Rapid fluorescence-based measurement of neutrophil migration in vitro. J Immunol Methods. 1998 Apr. 1;213(1):41-52). […] Growth factors were used, where indicated, at concentrations determined in preliminary experiments to give equivalent migration responses of about 100 cells migrated/high powered field (400×). […] Membranes were recovered, fixed and stained and the number of cells that had migrated to the upper chamber per 10 high power fields counted. […]

In test [6] the test system is HMVEC cells. The experiment in a line: Apoptosis of stimulated endothelial cells (histone ELISA). It is filed as cell-based, human. Here is the method:
FIG. 9B is a graph showing the induction by rK5 of apoptosis in stimulated endothelial cells. The rate of apoptosis was measured in HMVEC cells using a histone detection kit (Markwell, M. A. K. Anal Biochem 1982, 125, 427-432.) HMVECs were grown in 96 well plates. Recombinant K5 at various concentrations was added to plates and incubated overnight. Apoptosis was determined from triplicate samples and the Apoptotic index was determined by dividing the absorbance from the treated cells by the absorbance from the untreated cells.
Assessment of Cellular Apoptosis: The effects of rK5 and rK5 peptide-induced apoptosis were determined with a histone ELISA apoptosis assay (Roche, Indianapolis, Ind.)(Mayr M, Li C, Zou Y, Huemer U, Hu Y, Xu Q. Biomechanical stress-induced apoptosis in vein grafts involves p38 mitogen-activated protein kinases. FASEB J. 2000 Feb.; 14(2):261-70) Cells (5000 per well) were grown in 96 well plates. rK5 and/or an antibody to GRP78 were added to plates and incubated overnight. Apoptosis was determined from triplicate samples and the Apoptotic Index was determined by dividing the absorbance from the treated cells by the absorbance from the untreated cells.

B1: rK5: recombinant kringle 5 fragment of human plasminogen (residues 450-543), expressed in E. coli or yeast (protein)
chain: LLPDVETPSEEDCMFGNGKGYRGKRATTVTGTPCQDWAAQEPHRHSIFTPETNPRAGLEKNYCRNPDGDVGGPWCYTTNPRKLYDYCDVPQCAA
As to B1, in test [1], the “binding to GRP78 siRNA transfected HMVEC cells” value is reported as “very low”. Further, the IC50 in test [2] is around 50 nM. The “inhibition of migration of fibroblasts” value in test [3] was “failed to inhibit”. Besides, the “caspase 7 activity” value in test [4] is listed as “significant increase in caspase 7 activity”. Also, in test [5], the “inhibition of endothelial cell migration induced by inducers of angiogenesis” value is “inhibited”. Besides, in test [6], the “induction of endothelial cell apoptosis” value is given as 1 nM. Moreover, the “apoptosis of stimulated endothelial cells” value in test [6] (overnight, FIG. 9B) is listed as “induced”.
